Patent publication US20240026407A1, “MODIFICATION OF SAPONINS” (GLAXOSMITHKLINE BIOLOGICALS SA, priority 2020, published 2024)

Assays:
[1] = Example 9: screening of rhamnosidase variants for derhamnosylation of saponins in crude bark extract; format: biochemical, Quillaja saponaria; conditions: R5 round: 35 deg C, 18 h, lysate 0.0625% v/v, CBE 75% v/v, 100 mM Sodium acetate pH 5.8
Protocol: Libraries of genetic variants encoding mutations in the wild type Kribbella flavida rhamnosidase (SEQ ID No. 1017) were prepared using molecular biology techniques, enzymes were prepared linked to a C-terminally located His-tag. Single monoclonal colonies were grown in 400 ul of expression medium and protein expressed. Cell pellets were lysed in 200 ul of the relevant buffer (Table 17).
Lysate was diluted appropriately in the relevant buffer to allow a lysate loading of the indicated % loading (1% loading corresponds to use of 2 ul original lysate in a 200 ul reaction).
Crude bark extract (CBE) obtained by aqueous extraction of Quillaja saponaria and containing at least 2.80 mg/ml QS-21 (by HPLC-UV) was adjusted to pH 6 by dropwise addition of 2M NaOH with stirring. The relevant concentration of the relevant glucosidase was added. The appropriate relative volume of pH 6 CBE (160 ul (for 80%) or 150 ul (for 75%)) was added to each well of the reaction plate. The reaction plate was sealed and incubated at the relevant temperature and time.
The reaction plate was quenched by adding 200 uL of MeCN (2% AcOH, 1 mg/mL hexanophenone) to each well of the plates. The quenched reaction plate was re-sealed and incubated at 20 deg C. with shaking for 10 min. The reaction plate was then centrifuged (10 min, 4 degC).
200 uL was transferred from each well of the quenched plate to the corresponding wells of a fresh 96 well plate and sealed. The plate was analysed by UV HPLC with the method described in Example 4.
Three key peaks of interest are apparent using this chromatography: Left Peak (retention time approximately 2.30-2.35 min) comprising mainly QS-17 family components; Middle Peak (retention time approximately 2.37-2.42 min) comprising mainly QS-18 family components and desglucosyl-QS-17 family components; and Right Peak (retention time approximately 2.44-2.50 min) comprising mainly QS-21 family components. Peak identity was supported by MS/MS.
Enzyme activity is calculated as the % conversion of the Left Peak present in the crude bark extract: […]

[2] = Example 10: derhamnosylation of saponins in crude bark extract (50%) using WT and engineered rhamnosidases R1 to R5; format: biochemical, Quillaja saponaria; conditions: 50% CBE, 35 degC; for % Right Peak: starting CBE 26; for % Left Peak: starting CBE 30; for % Middle Peak: starting CBE 44
Protocol: Lyophilised powders from clarified cell lysate expressing glucosidases (from Example 8 WT glucosidase and engineered glucosidase polypeptides G1 to G5) and rhamnosidases (from Example 9 WT rhamnosidase and engineered rhamnosidase polypeptides R1 to R5) were dissolved in 200 mM sodium acetate aqueous solution at pH 5.8 to prepare the enzyme solutions at 4 fold the final reaction concentration as shown in Tables 19 and 20.
Each rhamnosidase solution was combined with an equal volume of 200 mM sodium acetate aqueous solution at pH 5.8 and separately with an equal volume of 200 mM sodium acetate aqueous solution at pH 5.8 containing 2 mg/ml glucosidase G5. This is a sufficient loading of glucosidase to effect complete hydrolysis of the relevant glucose moiety within 4 hours.
CBE was adjusted to pH of 6.0 to 6.2 with 2M sodium hydroxide and an equal volume added to the enzyme solution to prepare the reaction mix (i.e. 50% CBE concentration in reaction mix) and the concentration of glucosidase and/or rhamnosidase is shown in Tables 19 and 20. The reaction mix was heated to 35 degC for the time indicated in Tables 19 and 20, after which the reaction was quenched by addition of an equal volume of MeCN containing 2% acetic acid and shaken at room temperature for 10 mins prior to centrifugation (10 min, 4 degC) to remove particulates. Samples were analysed by UV HPLC using method of Experiment 4-4.
The change in composition of the Left, Middle and Right peaks is shown in Tables 19 and 20. The composition changes by the action of the enzymes depending on the presence or absence of the partner enzyme. The extent of reaction is proportional to the enzyme concentration and the reaction time under these conditions. The tables show data for enzyme concentrations and the reaction times providing for equivalent extents of reaction. The improvement resulting from the mutations introduced for each variant is equal to the fold change in enzyme concentration×time (i.e. fold improvement=(enzyme concentration×time) for preceding variant÷(enzyme concentration×time) for later variant). A cumulative fold improvement over the original enzyme variant is calculated by the product of the individual fold improvements.

[3] = rhamnosidase 0.16 mg/ml, no glucosidase, 7 h
[4] = rhamnosidase 0.31 mg/ml + glucosidase G5 0.5 mg/ml, 4 h

B1: Variant R5: engineered rhamnosidase polypeptide, variant of Kribbella flavida rhamnosidase SEQ ID No. 1017 (protein)
chain: MSFPAAPARLRFEHRTDPGPVLGIGTATPRLSWQVPTAPDDYRQAGYEVEIARGDAAPEQYTVDSADQVLVPWPGTPLAARESATVRVRVRGDGDWSQWSDPATVEAGLLSADDWTARFVSPRENAGHEAPAPLIGGVIDLPPDIAQARLYATAHGIYEPTLNGTRVGDEQLAPGWTAYEQRLRYQTYDVTDLVAPGENRLELLVGNGWYRGRMSFHDGHSLYGDRLAVLAQLEVTTATGEVKVLASDGTWTTRETNVLADDLYDGQHVDLRRTLGEPGPVDVLDADLSLLVAPDGPPVRVTDVLPAKAVTTSPAGKTLVDFGQNVVGRLRLRVRGGAAGDEIVLRHAEVLEDGELCVRPLRTAKATDSFVLAGPDEVTLEPTLTFHGFRYAEITGVPDLRAEDVEAVVVGSDLRRTGWFESSHPLLDRFHENVVWGMRGNFLDVPTDCPQRDERLGWTGDIQVFSPTASFLFDTAGFLTNWLADLIAEQHKDGSVPFVVPDVLRQPSPATAAWGDAATIVPWVLYERTGDAGLLARQLPSMRAWVDRMAGLAGDDLLWVGGFQFGDWLDPTAPPDDPFRAKADPDVLATAHLARSAEVVALAAEVVGAGELAREYAELAARVRQAFAAEYTTASGRVLSDAATNYALALQWALLPTEAQRKRAGERLADLVRTAGFRISTGFVGTPLMCDALADSGHPDLAYRLLLETGCPSWLYAVTMDATTVWERWDSMLPDGSINPGQMTSFNHYALGAVADWMHRRVAGLAPGDPGYRRIVVDPLFTAHLTKASARHLTPYGEAAVAWSRSGGRVRLEVTVPVGARARVAVPGESAPVEVGHGTHEWTADDVYGETPPLPADATIRQLIDHEPSWTTLAAAATRTGIVADDAELAGRLERYLDHPATELVDAVSPRGFSPSAEALHAELDSVLGR
modifications: Seq ID No. 1017 with mutations A143P, L214M, G215S, G218D, K219G, G357C, G508S, G634A, A690C, Q921H
In the case of B1, the “% conversion (Right peak/Left Peak) (−neg control)” value [1] is reported as 2.62%, the “Cumulative FIOP from WT” value ([1]; estimate) is reported as 28.7 and the “Right Peak %” value ([1]; negative control 26.23) is reported as 26.93%. For the same molecule, the “Left Peak %” value ([1]; negative control 28.76) was 26.59%, the “Middle Peak %” value ([1]; negative control 45.00) was 46.48% and the “% conversion (Right peak/Left Peak)” value ([1]; negative control 47.70) was 50.32%. The “FIOP (% area increase variant/pos control)” value ([1]; positive control R4) was 1.3, the “time to complete hydrolysis of the relevant rhamnose moiety” value ([2]; 2 mg/ml rhamnosidase R5 solution (before mixing with glucosidase solution and CBE)) was no more than 4 h and the “cumulative fold improvement over WT rhamnosidase” value ([2]; from enzyme concentration x time for equivalent extent of reaction) was “approximately 30 fold”. For the same molecule, the “% change in Left Peak” value [2, 3] was −45%, the “% change in Middle Peak” value [2, 3] was 27% and the “% change in Right Peak” value [2, 3] was 106%. For the same molecule, the “Cumulative Fold improvement in primary enzyme loading × time” value [2, 3] was 31, the “Fold improvement in primary enzyme loading × time” value [2, 3] was 1.9 and the “% Right Peak” value [2, 3] was 28%. For the same molecule, the “% Left Peak” value [2, 3] was 17%, the “% Middle Peak” value [2, 3] was 56% and the “% change in Left Peak” value [2, 4] was −34%. The “% change in Middle Peak” value [2, 4] was −93%, the “% change in Right Peak” value [2, 4] was 296% and the “Cumulative Fold improvement in primary enzyme loading × time” value [2, 4] was 27. For the same molecule, the “Fold improvement in primary enzyme loading × time” value [2, 4] was 1.7, the “% Right Peak” value [2, 4] was 77% and the “% Left Peak” value [2, 4] was 20%. The “% Middle Peak” value [2, 4] was 3%.
